Test results taken from patent publication US20200277382A1 (TUFTS MEDICAL CENTER, published 2020).

Molecular target: T1, integrin α5 (obligate heterodimer α5β1) (human, UniProt P08648 42-1049; P05556 21-798)
T1 construct: whole, on cells; on the cells α5 stands as α5β1; also called alpha 5; ITGA5
Experiment: flow cytometry on a panel of cell lines with variable integrin α5 and alpha-V expression
Procedure: Flow Cytometry: Cells with variable membrane integrin α5 and alpha-V expression were incubated with monoclonal α5 or alpha-V antibodies (Millipore MAB1956Z and MABT207), the bispecific antibody construct ITGA5B1xAV, or isotype control, for 1 hour at room temperature followed by 1 hour of incubation with a secondary-conjugated antibody, before being analyzed by flow cytometry.
Statistics: The mean fluorescent intensities (MFI) for the α5, alpha-V, and bispecific ITGA5B1xAV stained cell populations for each cell line were calculated from the flow cytometry data. Then a correlation coefficient between the sum of α5 and alpha-V MFIs and the bispecific ITGA5B1xAV was calculated.
The sum of integrin α5 and integrin alpha-V binding (MFI) was highly correlated with bispecific binding (correlation.9187; FIG. 3B).

B1: ITGA5B1xAV bispecific, tetravalent antibody construct (bispecific antibody, human IgG2, kappa)
heavy: QVQLQQSGGELAKPGASVKVSCKASGYTFSSFWMHWVRQAPGQGLEWIGYINPRSGYTEYNEIFRDKATMTTDTSTSTAYMELSSLRSEDTAVYYCASFLGRGAMDYWGQGTTVTVSSASTKGPSVFPLAPCSRSTSESTAALGCLVKDYFPEPVTVSWNSGALTSGVHTFPAVLQSSGLYSLSSVVTVPSSNFGTQTYTCNVDHKPSNTKVDKTVERKCCVECPPCPAPPVAGPSVFLFPPKPKDTLMISRTPEVTCVVVDVSHEDPEVQFNWYVDGVEVHNAKTKPREEQFNSTFRVVSVLTVVHQDWLNGKEYKCKVSNKGLPAPIEKTISKTKGQPREPQVYTLPPSREEMTKNQVSLTCLVKGFYPSDIAVEWESNGQPENNYKTTPPMLDSDGSFFLYSKLTVDKSRWQQGNVFSCSVMHEALHNHYTQKSLSLSPGKGGGGSGGGGSQVQLKESGPGLVAPSQSLSITCTISGFSLTDYGVHWVRQPPGKGLEWLVVIWSDGSSTYNSALKSRMTIRKDNSKSQVFLIMNSLQTDDSAMYYCARHGTYYGMTTTGDALDYWGQGTSVTVSSGGGGSGGGGSGGGGSQIVLTQSPAIMSASLGERVTMTCTASSSVSSNYLHWYQQKPGSAPNLWIYSTSNLASGVPARFSGSGSGTSYSLTISSMEAEDAATYYCHQYLRSPPTFGGGTKLEIK
light: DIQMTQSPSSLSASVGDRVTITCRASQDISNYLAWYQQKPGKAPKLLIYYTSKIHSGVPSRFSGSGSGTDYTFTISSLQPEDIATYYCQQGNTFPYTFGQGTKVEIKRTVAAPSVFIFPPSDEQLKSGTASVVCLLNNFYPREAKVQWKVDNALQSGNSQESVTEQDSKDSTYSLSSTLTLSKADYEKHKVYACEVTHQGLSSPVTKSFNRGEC
notes: also called ITGa5β1xaV; bispecific ITGA5V
binding result: binds
